Here are results for 16 sequences from the Immune Epitope Database (IEDB).

One may read the Kd as the constant that tells how readily two partners part at equilibrium.

Some results are limits rather than exact numbers.

Among the targets are HLA-A*01:01; HLA-A*30:02; HLA-A*29:02; HLA-A*23:01; HLA-A*26:01; HLA-A*24:02.
What all share (assay): IEDB peptide-MHC binding, purified MHC/competitive/radioactivity; filed as Kd, often an IC50 or EC50 that approximates it; ≥ and ≤ were set here for values at or beyond the usual limits of such assays
The mark [1] stands for this setting: source organism: SARS coronavirus Tor2.
Where [2] appears, read: source organism: Mammarenavirus choriomeningitidis.
Where [3] appears, read: source organism: Lassa virus Josiah.
Setting [4] is: source organism: Mammarenavirus lassaense.

For MYIFFASFYY, the Kd worked out at 6700 nM with HLA-A*01:01 (setting [1]); 9.07 nM in the experiment with HLA-A*30:02 (setting [1]); 0.449 nM with HLA-A*29:02 (setting [1]); 722 nM with HLA-A*23:01 (setting [1]); 575 nM in the experiment with HLA-A*26:01 (setting [1]); 6650 nM with HLA-A*24:02 (setting [1]).

Take WCSQTDYQYL: the Kd with HLA-A*01:01 (setting [2]) was 13100 nM; with HLA-A*30:02 (setting [2]) it was 10600 nM; in the experiment with HLA-A*29:02 (setting [2]) it was 9280 nM; with HLA-A*23:01 (setting [2]) it was 10800 nM; in the experiment with HLA-A*26:01 (setting [2]), ≥ 69700 nM; with HLA-A*24:02 (setting [2]), 15000 nM.

For the sequence SDAHKKNLY, the Kd with HLA-A*01:01 (setting [3]) is 1120 nM; with HLA-A*30:02 (setting [3]), 1640 nM; in the experiment with HLA-A*29:02 (setting [3]), ≥ 69700 nM; with HLA-A*23:01 (setting [3]), ≥ 77700 nM; with HLA-A*26:01 (setting [3]), ≥ 77900 nM; with HLA-A*24:02 (setting [3]), ≥ 77500 nM.

On to FSGALDTTSY, for which the Kd in the experiment with HLA-A*01:01 (setting [1]) was 1310 nM; in the experiment with HLA-A*30:02 (setting [1]), 451 nM; in the experiment with HLA-A*29:02 (setting [1]), 678 nM; in the experiment with HLA-A*23:01 (setting [1]), ≥ 70000 nM; in the experiment with HLA-A*26:01 (setting [1]) it was 9150 nM; with HLA-A*24:02 (setting [1]), ≥ 70300 nM.

For RYNTRGNTY, the Kd with HLA-A*01:01 (setting [1]) is 13900 nM; with HLA-A*30:02 (setting [1]) it was 31.3 nM; in the experiment with HLA-A*29:02 (setting [1]), 1770 nM; with HLA-A*23:01 (setting [1]), 8930 nM; in the experiment with HLA-A*26:01 (setting [1]), ≥ 52200 nM; with HLA-A*24:02 (setting [1]), 1790 nM.

Take FYFTNDVSFL: the Kd with HLA-A*01:01 (setting [1]) is 2000 nM; with HLA-A*30:02 (setting [1]), ≥ 34200 nM; with HLA-A*29:02 (setting [1]) it was 384 nM; in the experiment with HLA-A*23:01 (setting [1]) it was 59.2 nM; in the experiment with HLA-A*26:01 (setting [1]), 9340 nM; in the experiment with HLA-A*24:02 (setting [1]), 47.5 nM.

As to AGFPAGLTY, the dissociation constant (Kd) with HLA-A*01:01 (setting [4]) was ≥ 78100 nM; with HLA-A*30:02 (setting [4]) it was 287 nM; in the experiment with HLA-A*29:02 (setting [4]), 68.9 nM; with HLA-A*23:01 (setting [4]) it was ≥ 77700 nM; in the experiment with HLA-A*26:01 (setting [4]), ≥ 77900 nM; with HLA-A*24:02 (setting [4]), ≥ 77500 nM.

Turning to DNAFNCTFEY, the Kd was 4250 nM with HLA-A*01:01 (setting [1]); 382 nM with HLA-A*30:02 (setting [1]); 14.4 nM in the experiment with HLA-A*29:02 (setting [1]); ≥ 70000 nM with HLA-A*23:01 (setting [1]); 132 nM in the experiment with HLA-A*26:01 (setting [1]); ≥ 70300 nM with HLA-A*24:02 (setting [1]).

As to VFQSATKII, the Kd is ≥ 59200 nM with HLA-A*01:01 (setting [1]); 199 nM with HLA-A*30:02 (setting [1]); 0.0425 nM with HLA-A*29:02 (setting [1]); 0.162 nM with HLA-A*23:01 (setting [1]); ≥ 43600 nM with HLA-A*26:01 (setting [1]); 0.211 nM with HLA-A*24:02 (setting [1]).

WCSQTDYQY: the equilibrium dissociation constant (Kd) in the experiment with HLA-A*01:01 (setting [2]) is 1160 nM; with HLA-A*30:02 (setting [2]), 342 nM; in the experiment with HLA-A*29:02 (setting [2]), 258 nM; in the experiment with HLA-A*23:01 (setting [2]), ≥ 77700 nM; with HLA-A*26:01 (setting [2]) it was ≥ 77900 nM; in the experiment with HLA-A*24:02 (setting [2]), ≥ 77500 nM.

For the sequence VKMPTHRHI, the Kd in the experiment with HLA-A*01:01 (setting [2]) was ≥ 78100 nM; with HLA-A*30:02 (setting [2]) it was ≥ 76900 nM; in the experiment with HLA-A*29:02 (setting [2]), ≥ 78900 nM; in the experiment with HLA-A*23:01 (setting [2]), ≥ 77700 nM; with HLA-A*26:01 (setting [2]), ≥ 77900 nM; in the experiment with HLA-A*24:02 (setting [2]), ≥ 77500 nM.

For the sequence LLEKCDLQNY, the dissociation constant (Kd) with HLA-A*01:01 (setting [1]) is 70.7 nM; with HLA-A*30:02 (setting [1]), 7030 nM; with HLA-A*29:02 (setting [1]), 3260 nM; in the experiment with HLA-A*23:01 (setting [1]), ≥ 70000 nM; with HLA-A*26:01 (setting [1]), ≥ 82800 nM; in the experiment with HLA-A*24:02 (setting [1]) it was ≥ 70300 nM.

With HFAIGLALYY, the dissociation constant Kd with HLA-A*01:01 (setting [1]) was 2320 nM; in the experiment with HLA-A*30:02 (setting [1]) it was 236 nM; with HLA-A*29:02 (setting [1]), 0.233 nM; with HLA-A*23:01 (setting [1]), ≥ 60900 nM; in the experiment with HLA-A*26:01 (setting [1]), 6.53 nM; with HLA-A*24:02 (setting [1]), ≥ 70300 nM.

RYNLPTMCDI: the Kd in the experiment with HLA-A*01:01 (setting [1]) is ≥ 70400 nM; with HLA-A*30:02 (setting [1]) it was 90 nM; in the experiment with HLA-A*29:02 (setting [1]) it was 5260 nM; with HLA-A*23:01 (setting [1]), 180 nM; in the experiment with HLA-A*26:01 (setting [1]) it was ≥ 69700 nM; with HLA-A*24:02 (setting [1]), 601 nM.

Turning to KSFEIDKGIY, the dissociation constant Kd with HLA-A*01:01 (setting [1]) was 780 nM; with HLA-A*30:02 (setting [1]), 4.75 nM; with HLA-A*29:02 (setting [1]), 984 nM; with HLA-A*23:01 (setting [1]), ≥ 70000 nM; in the experiment with HLA-A*26:01 (setting [1]), 5510 nM; in the experiment with HLA-A*24:02 (setting [1]), ≥ 70300 nM.

As to CKDGHVETFY, the dissociation constant (Kd) was 8080 nM with HLA-A*01:01 (setting [1]); 506 nM in the experiment with HLA-A*30:02 (setting [1]); 171 nM with HLA-A*29:02 (setting [1]); ≥ 70000 nM in the experiment with HLA-A*23:01 (setting [1]); 3870 nM in the experiment with HLA-A*26:01 (setting [1]); ≥ 70300 nM with HLA-A*24:02 (setting [1]).
